# T1: human S100A9 protein of Uniprot accession no. P06702 (recombinant, wild type) (human, UniProt P06702 2-114)
# T1 construct: Recombinant; also called recS100A9; S100A9 wt
# T1 sequence: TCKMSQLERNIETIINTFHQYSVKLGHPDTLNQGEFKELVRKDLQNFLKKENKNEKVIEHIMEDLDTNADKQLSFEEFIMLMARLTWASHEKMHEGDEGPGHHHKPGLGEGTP
# B1: human S100A8 protein of Uniprot accession no. P05109 (recombinant) (other)
# chain: LTELEKALNSIIDVYHKYSLIKGNFHAVYRDDLKKLLETECPQYIRKKGADVWFKELDINTDGAVNFQEFLILVIKMGVAAHKKSHEESHKE
# notes: Recombinant; also called recS100A8
# Legend:
# [1] = target: the molecule itself; assay: glycerol centrifugation with EGTA, Bradford assay of fractions (homodimer)
# Protocol: FIG. 8: Glycerol centrifugation of S100A12 proteins. Wild type (wt) and mutant recS100A12 complexes were loaded on a 15% glycerol solution in the presence of either EGTA or Ca²⁺ or Zn²⁺ or Ca²⁺/Zn²⁺. Buffer conditions were 20 mM HEPES, 140 mM NaCl, pH 7.4. After centrifugation, successive fractions of the gradients were analyzed by the colorimetric assay Bradford. […] Addition of calcium or zinc alone induced no shift for wtS100A12 to higher glycerol fractions. Addition of calcium plus zinc induced a marked shift for wtS100A12 to higher glycerol fractions, whereas for the mutant complex recS100A12(E73A) no shift was observed. FIG. 8A: Protein concentrations of collected fractions determined by Bradford assay. Sample A: S100A12 wild type+2 mM EGTA, sample B S100A12 wild type+5 mM CaCl₂, sample C: S100A12 wild type+1 mM Zn, sample D S100A12 wild type+200 μM Zn, sample E: S100A12 wild type+5 mM CaCl₂+200 μM Zn, sample F: S100A12 wild type+2.5 mM CaCl₂+100 μM Zn FIG. 8B: Summary of collected and analysed fractions of wtS100A12 (see FIG. 8A) in the presence or absence of bivalent cations as indicated in the figure. FIG. 8C Summary of collected and analysed fractions of wtS100A12 and recS100A12E73A mutant in the presence (5 mM CaCl₂+200 μM Zn, 2.5 mM CaCl₂+100 μM Zn) or absence (2 mM EGTA) of bivalent cations as indicated in the figure.
# [2] = target: T1, human S100A9 protein of Uniprot …; assay: MALDI-MS, native conditions, without calcium
# Source text: (§1) FIG. 5: MALDI mass spectra in the absence and presence of calcium under native solvent conditions. (a) MALDI mass spectra of recS100A8/S100A9 wt complexes in the absence (left) and presence (right) of calcium using 2,6-dihydroxy-acetophenone as matrix. The mass spectra between m/z 20,000 and 100,000 together with an inset between m/z 46,000 and 50,000 are shown. T⁺, singly charged; T²⁺, doubly charged; T³⁺, triply charged tetramer. (b) MALDI mass spectra of recS100A8/S100A9(N69A) mutant complexes in the absence (left) and presence (right) of calcium.
# S100A8 and S100A9 exist as heterodimers in the absence of calcium, and these heterodimeric complexes associate to (S100A8/S100A9)₂ tetramers upon calcium-binding. […] In the absence of calcium, samples show intense signals of singly charged heterodimers. […] Other prominent signals are detected at molecular masses of around 24 kDa and 16 kDa, representing doubly charged (T2+) or triply charged (T3+) tetramers in accordance with results reported earlier for the native proteins purified from human granulocytes. The number of Ca2+ bound to the tetramers was calculated from the difference between the observed masses of the tetramers and the sum of the calculated theoretical molecular masses of the monomeric components.
# [3] = target: the molecule itself; assay: MALDI-MS, native conditions, with calcium (heterodimer to heterodimer)
# Source text: as §1
# [4] = target: the molecule itself; assay: glycerol density gradient centrifugation with calcium, SDS-PAGE of fractions (heterodimer to heterodimer)
# Protocol: (§2) FIG. 7: Density gradient centrifugation of S100A8/S100A9 proteins. wt and mutant recS100A8/S100A9 complexes were loaded on a glycerol gradient in the presence of either 1 mM EGTA or 100 μM Ca2+. After centrifugation, successive fractions of the gradients were analyzed by SDS-PAGE. […] Addition of calcium induced a marked shift for recS100A8/S100A9 wt to higher glycerol densities, whereas for the mutant complexes recS100A8/S100A9(N69A) and recS100A8/S100A9(E78A) no shift was observed.
# [5] = target: B1; assay: ESI-MS, native conditions
# [6] = target: B1; assay: glycerol density gradient centrifugation with EGTA, SDS-PAGE of fractions
# Protocol: as §2
binder,measurement,setting,value
"wild type human S100A12 protein (recombinant), single chain (other, also called recS100A12 wt; wtS100A12) TKLEEHLEGIVNIFHQYSVRKGHFDTLSKGELKQLLTKELANTIKNIKDKAVIDEIFQGLDANQDEQVDFQEFISLVAIALKAAHYHTHKE",binding result,[1],binds
B1,binding result,[2],binds
"recS100A8/S100A9(N69A+E78A) mutant heterodimer (other, Heterodimer tested for association with itself into a tetramer) chain 1: LTELEKALNSIIDVYHKYSLIKGNFHAVYRDDLKKLLETECPQYIRKKGADVWFKELDINTDGAVNFQEFLILVIKMGVAAHKKSHEESHKE chain 2: TCKMSQLERNIETIINTFHQYSVKLGHPDTLNQGEFKELVRKDLQNFLKKENKNEKVIEHIMEDLDTAADKQLSFEAFIMLMARLTWASHEKMHEGDEGPGHHHKPGLGEGTP",binding result,[3],no binding
"recS100A8/S100A9 wt heterodimer (other, This heterodimer is the unit that joins with a second one to form the (S100A8/S100A9)2 tetramer when calcium is present; also called recS100A8/S100A9 wt complexes; wt S100A8/S100A9) chain 1: LTELEKALNSIIDVYHKYSLIKGNFHAVYRDDLKKLLETECPQYIRKKGADVWFKELDINTDGAVNFQEFLILVIKMGVAAHKKSHEESHKE chain 2: TCKMSQLERNIETIINTFHQYSVKLGHPDTLNQGEFKELVRKDLQNFLKKENKNEKVIEHIMEDLDTNADKQLSFEEFIMLMARLTWASHEKMHEGDEGPGHHHKPGLGEGTP",binding result,[4],binds
"recS100A8/S100A9(E78A) mutant heterodimer (other, Heterodimer tested for association with itself into a tetramer) chain 1: LTELEKALNSIIDVYHKYSLIKGNFHAVYRDDLKKLLETECPQYIRKKGADVWFKELDINTDGAVNFQEFLILVIKMGVAAHKKSHEESHKE chain 2: TCKMSQLERNIETIINTFHQYSVKLGHPDTLNQGEFKELVRKDLQNFLKKENKNEKVIEHIMEDLDTNADKQLSFEAFIMLMARLTWASHEKMHEGDEGPGHHHKPGLGEGTP",binding result,[3],no binding
"recS100A8/S100A9(N69A) mutant heterodimer (other, Heterodimer tested for association with itself into a tetramer; also called recS100A8/S100A9(N69A) mutant complexes) chain 1: LTELEKALNSIIDVYHKYSLIKGNFHAVYRDDLKKLLETECPQYIRKKGADVWFKELDINTDGAVNFQEFLILVIKMGVAAHKKSHEESHKE chain 2: TCKMSQLERNIETIINTFHQYSVKLGHPDTLNQGEFKELVRKDLQNFLKKENKNEKVIEHIMEDLDTAADKQLSFEEFIMLMARLTWASHEKMHEGDEGPGHHHKPGLGEGTP",binding result,[3],no binding
"S100A9 (N69A+E78A), mutant of human S100A9 having a double Asn69→Ala and Glu78→Ala substitution (other) TCKMSQLERNIETIINTFHQYSVKLGHPDTLNQGEFKELVRKDLQNFLKKENKNEKVIEHIMEDLDTAADKQLSFEAFIMLMARLTWASHEKMHEGDEGPGHHHKPGLGEGTP",binding result,[5],binds
"S100A9 (E78A), mutant of human S100A9 having a single Glu78→Ala substitution (other) TCKMSQLERNIETIINTFHQYSVKLGHPDTLNQGEFKELVRKDLQNFLKKENKNEKVIEHIMEDLDTNADKQLSFEAFIMLMARLTWASHEKMHEGDEGPGHHHKPGLGEGTP",binding result,[6],binds
"S100A9 (N69A), mutant of human S100A9 having a single Asn69→Ala substitution (other) TCKMSQLERNIETIINTFHQYSVKLGHPDTLNQGEFKELVRKDLQNFLKKENKNEKVIEHIMEDLDTAADKQLSFEEFIMLMARLTWASHEKMHEGDEGPGHHHKPGLGEGTP",binding result,[6],binds
